The star is where a group is joined. Palmitoyl = CCCCCCCCCCCCCCCC(=O)*
B1: peptide 17 (Pal-NSRLGNGVLY-NH2) (peptide)
peptide: Palmitoyl-NSRLGNGVLY-NH2
SMILES: CCCCCCCCCCCCCCCC(=O)N[C@@H](CC(N)=O)C(=O)N[C@@H](CO)C(=O)N[C@@H](CCCNC(=N)N)C(=O)N[C@@H](CC(C)C)C(=O)NCC(=O)N[C@@H](CC(N)=O)C(=O)NCC(=O)N[C@H](C(=O)N[C@@H](CC(C)C)C(=O)N[C@@H](Cc1ccc(O)cc1)C(N)=O)C(C)C
B2: peptide 12 (Pal-RKRNNSRLGNGVLYASVN-NH2) (peptide)
peptide: Palmitoyl-RKRNNSRLGNGVLYASVN-NH2
SMILES: CCCCCCCCCCCCCCCC(=O)N[C@@H](CCCNC(=N)N)C(=O)N[C@@H](CCCCN)C(=O)N[C@@H](CCCNC(=N)N)C(=O)N[C@@H](CC(N)=O)C(=O)N[C@@H](CC(N)=O)C(=O)N[C@@H](CO)C(=O)N[C@@H](CCCNC(=N)N)C(=O)N[C@@H](CC(C)C)C(=O)NCC(=O)N[C@@H](CC(N)=O)C(=O)NCC(=O)N[C@H](C(=O)N[C@@H](CC(C)C)C(=O)N[C@@H](Cc1ccc(O)cc1)C(=O)N[C@@H](C)C(=O)N[C@@H](CO)C(=O)N[C@H](C(=O)N[C@@H](CC(N)=O)C(N)=O)C(C)C)C(C)C
B3: peptide 7 (Pal-HRKRNNSRLGNGVLYAS-NH2) (peptide)
peptide: Palmitoyl-HRKRNNSRLGNGVLYAS-NH2
SMILES: CCCCCCCCCCCCCCCC(=O)N[C@@H](Cc1c[nH]cn1)C(=O)N[C@@H](CCCNC(=N)N)C(=O)N[C@@H](CCCCN)C(=O)N[C@@H](CCCNC(=N)N)C(=O)N[C@@H](CC(N)=O)C(=O)N[C@@H](CC(N)=O)C(=O)N[C@@H](CO)C(=O)N[C@@H](CCCNC(=N)N)C(=O)N[C@@H](CC(C)C)C(=O)NCC(=O)N[C@@H](CC(N)=O)C(=O)NCC(=O)N[C@H](C(=O)N[C@@H](CC(C)C)C(=O)N[C@@H](Cc1ccc(O)cc1)C(=O)N[C@@H](C)C(=O)N[C@@H](CO)C(N)=O)C(C)C
B4: peptide 10 (Pal-HRKRNNSRLGNGVL-NH2) (peptide)
peptide: Palmitoyl-HRKRNNSRLGNGVL-NH2
SMILES: CCCCCCCCCCCCCCCC(=O)N[C@@H](Cc1c[nH]cn1)C(=O)N[C@@H](CCCNC(=N)N)C(=O)N[C@@H](CCCCN)C(=O)N[C@@H](CCCNC(=N)N)C(=O)N[C@@H](CC(N)=O)C(=O)N[C@@H](CC(N)=O)C(=O)N[C@@H](CO)C(=O)N[C@@H](CCCNC(=N)N)C(=O)N[C@@H](CC(C)C)C(=O)NCC(=O)N[C@@H](CC(N)=O)C(=O)NCC(=O)N[C@H](C(=O)N[C@@H](CC(C)C)C(N)=O)C(C)C
B5: peptide 16 (Pal-RNNSRLGNGVLY-NH2) (peptide)
peptide: Palmitoyl-RNNSRLGNGVLY-NH2
SMILES: CCCCCCCCCCCCCCCC(=O)N[C@@H](CCCNC(=N)N)C(=O)N[C@@H](CC(N)=O)C(=O)N[C@@H](CC(N)=O)C(=O)N[C@@H](CO)C(=O)N[C@@H](CCCNC(=N)N)C(=O)N[C@@H](CC(C)C)C(=O)NCC(=O)N[C@@H](CC(N)=O)C(=O)NCC(=O)N[C@H](C(=O)N[C@@H](CC(C)C)C(=O)N[C@@H](Cc1ccc(O)cc1)C(N)=O)C(C)C
B6: peptide 8 (Pal-HRKRNNSRLGNGVLYA-NH2) (peptide)
peptide: Palmitoyl-HRKRNNSRLGNGVLYA-NH2
SMILES: CCCCCCCCCCCCCCCC(=O)N[C@@H](Cc1c[nH]cn1)C(=O)N[C@@H](CCCNC(=N)N)C(=O)N[C@@H](CCCCN)C(=O)N[C@@H](CCCNC(=N)N)C(=O)N[C@@H](CC(N)=O)C(=O)N[C@@H](CC(N)=O)C(=O)N[C@@H](CO)C(=O)N[C@@H](CCCNC(=N)N)C(=O)N[C@@H](CC(C)C)C(=O)NCC(=O)N[C@@H](CC(N)=O)C(=O)NCC(=O)N[C@H](C(=O)N[C@@H](CC(C)C)C(=O)N[C@@H](Cc1ccc(O)cc1)C(=O)N[C@@H](C)C(N)=O)C(C)C
B7: peptide 9 (Pal-HRKRNNSRLGNGVLY-NH2) (peptide)
peptide: Palmitoyl-HRKRNNSRLGNGVLY-NH2
SMILES: CCCCCCCCCCCCCCCC(=O)N[C@@H](Cc1c[nH]cn1)C(=O)N[C@@H](CCCNC(=N)N)C(=O)N[C@@H](CCCCN)C(=O)N[C@@H](CCCNC(=N)N)C(=O)N[C@@H](CC(N)=O)C(=O)N[C@@H](CC(N)=O)C(=O)N[C@@H](CO)C(=O)N[C@@H](CCCNC(=N)N)C(=O)N[C@@H](CC(C)C)C(=O)NCC(=O)N[C@@H](CC(N)=O)C(=O)NCC(=O)N[C@H](C(=O)N[C@@H](CC(C)C)C(=O)N[C@@H](Cc1ccc(O)cc1)C(N)=O)C(C)C
B8: peptide 13 (Pal-KRNNSRLGNGVLYASVN-NH2) (peptide)
peptide: Palmitoyl-KRNNSRLGNGVLYASVN-NH2
SMILES: CCCCCCCCCCCCCCCC(=O)N[C@@H](CCCCN)C(=O)N[C@@H](CCCNC(=N)N)C(=O)N[C@@H](CC(N)=O)C(=O)N[C@@H](CC(N)=O)C(=O)N[C@@H](CO)C(=O)N[C@@H](CCCNC(=N)N)C(=O)N[C@@H](CC(C)C)C(=O)NCC(=O)N[C@@H](CC(N)=O)C(=O)NCC(=O)N[C@H](C(=O)N[C@@H](CC(C)C)C(=O)N[C@@H](Cc1ccc(O)cc1)C(=O)N[C@@H](C)C(=O)N[C@@H](CO)C(=O)N[C@H](C(=O)N[C@@H](CC(N)=O)C(N)=O)C(C)C)C(C)C
B9: peptide 11 (Pal-HRKRNNSRLGNGV-NH2) (peptide)
peptide: Palmitoyl-HRKRNNSRLGNGV-NH2
SMILES: CCCCCCCCCCCCCCCC(=O)N[C@@H](Cc1c[nH]cn1)C(=O)N[C@@H](CCCNC(=N)N)C(=O)N[C@@H](CCCCN)C(=O)N[C@@H](CCCNC(=N)N)C(=O)N[C@@H](CC(N)=O)C(=O)N[C@@H](CC(N)=O)C(=O)N[C@@H](CO)C(=O)N[C@@H](CCCNC(=N)N)C(=O)N[C@@H](CC(C)C)C(=O)NCC(=O)N[C@@H](CC(N)=O)C(=O)NCC(=O)N[C@H](C(N)=O)C(C)C
B10: peptide 24 (Pal-VFHRKRNNSRLGNGVLYASVN-NH2) (peptide)
peptide: Palmitoyl-VFHRKRNNSRLGNGVLYASVN-NH2
SMILES: CCCCCCCCCCCCCCCC(=O)N[C@H](C(=O)N[C@@H](Cc1ccccc1)C(=O)N[C@@H](Cc1c[nH]cn1)C(=O)N[C@@H](CCCNC(=N)N)C(=O)N[C@@H](CCCCN)C(=O)N[C@@H](CCCNC(=N)N)C(=O)N[C@@H](CC(N)=O)C(=O)N[C@@H](CC(N)=O)C(=O)N[C@@H](CO)C(=O)N[C@@H](CCCNC(=N)N)C(=O)N[C@@H](CC(C)C)C(=O)NCC(=O)N[C@@H](CC(N)=O)C(=O)NCC(=O)N[C@H](C(=O)N[C@@H](CC(C)C)C(=O)N[C@@H](Cc1ccc(O)cc1)C(=O)N[C@@H](C)C(=O)N[C@@H](CO)C(=O)N[C@H](C(=O)N[C@@H](CC(N)=O)C(N)=O)C(C)C)C(C)C)C(C)C
B11: peptide 14 (Pal-RNNSRLGNGVLYASVN-NH2) (peptide)
peptide: Palmitoyl-RNNSRLGNGVLYASVN-NH2
SMILES: CCCCCCCCCCCCCCCC(=O)N[C@@H](CCCNC(=N)N)C(=O)N[C@@H](CC(N)=O)C(=O)N[C@@H](CC(N)=O)C(=O)N[C@@H](CO)C(=O)N[C@@H](CCCNC(=N)N)C(=O)N[C@@H](CC(C)C)C(=O)NCC(=O)N[C@@H](CC(N)=O)C(=O)NCC(=O)N[C@H](C(=O)N[C@@H](CC(C)C)C(=O)N[C@@H](Cc1ccc(O)cc1)C(=O)N[C@@H](C)C(=O)N[C@@H](CO)C(=O)N[C@H](C(=O)N[C@@H](CC(N)=O)C(N)=O)C(C)C)C(C)C
B12: peptide 27 (Pal-KRNNSRLGNGVLY-NH2) (peptide)
peptide: Palmitoyl-KRNNSRLGNGVLY-NH2
SMILES: CCCCCCCCCCCCCCCC(=O)N[C@@H](CCCCN)C(=O)N[C@@H](CCCNC(=N)N)C(=O)N[C@@H](CC(N)=O)C(=O)N[C@@H](CC(N)=O)C(=O)N[C@@H](CO)C(=O)N[C@@H](CCCNC(=N)N)C(=O)N[C@@H](CC(C)C)C(=O)NCC(=O)N[C@@H](CC(N)=O)C(=O)NCC(=O)N[C@H](C(=O)N[C@@H](CC(C)C)C(=O)N[C@@H](Cc1ccc(O)cc1)C(N)=O)C(C)C
B13: peptide 20 (Pal-RLGNGVLY-NH2) (peptide)
peptide: Palmitoyl-RLGNGVLY-NH2
SMILES: CCCCCCCCCCCCCCCC(=O)N[C@@H](CCCNC(=N)N)C(=O)N[C@@H](CC(C)C)C(=O)NCC(=O)N[C@@H](CC(N)=O)C(=O)NCC(=O)N[C@H](C(=O)N[C@@H](CC(C)C)C(=O)N[C@@H](Cc1ccc(O)cc1)C(N)=O)C(C)C
B14: peptide 19 (Pal-SRLGNGVLY-NH2) (peptide)
peptide: Palmitoyl-SRLGNGVLY-NH2
SMILES: CCCCCCCCCCCCCCCC(=O)N[C@@H](CO)C(=O)N[C@@H](CCCNC(=N)N)C(=O)N[C@@H](CC(C)C)C(=O)NCC(=O)N[C@@H](CC(N)=O)C(=O)NCC(=O)N[C@H](C(=O)N[C@@H](CC(C)C)C(=O)N[C@@H](Cc1ccc(O)cc1)C(N)=O)C(C)C
B15: peptide 15 (Pal-NNSRLGNGVLY-NH2) (peptide)
peptide: Palmitoyl-NNSRLGNGVLY-NH2
SMILES: CCCCCCCCCCCCCCCC(=O)N[C@@H](CC(N)=O)C(=O)N[C@@H](CC(N)=O)C(=O)N[C@@H](CO)C(=O)N[C@@H](CCCNC(=N)N)C(=O)N[C@@H](CC(C)C)C(=O)NCC(=O)N[C@@H](CC(N)=O)C(=O)NCC(=O)N[C@H](C(=O)N[C@@H](CC(C)C)C(=O)N[C@@H](Cc1ccc(O)cc1)C(N)=O)C(C)C
B16: peptide 2 (Pal-HRKRNNSRLG-NH2) (peptide)
peptide: Palmitoyl-HRKRNNSRLG-NH2
SMILES: CCCCCCCCCCCCCCCC(=O)N[C@@H](Cc1c[nH]cn1)C(=O)N[C@@H](CCCNC(=N)N)C(=O)N[C@@H](CCCCN)C(=O)N[C@@H](CCCNC(=N)N)C(=O)N[C@@H](CC(N)=O)C(=O)N[C@@H](CC(N)=O)C(=O)N[C@@H](CO)C(=O)N[C@@H](CCCNC(=N)N)C(=O)N[C@@H](CC(C)C)C(=O)NCC(N)=O

target: Insulin-like growth factor 1 receptor (IGF1R) (UniProt P08069 31-1367, limits assumed); test: cell-based or functional assay
Sequence (P08069 31-1367 limits assumed): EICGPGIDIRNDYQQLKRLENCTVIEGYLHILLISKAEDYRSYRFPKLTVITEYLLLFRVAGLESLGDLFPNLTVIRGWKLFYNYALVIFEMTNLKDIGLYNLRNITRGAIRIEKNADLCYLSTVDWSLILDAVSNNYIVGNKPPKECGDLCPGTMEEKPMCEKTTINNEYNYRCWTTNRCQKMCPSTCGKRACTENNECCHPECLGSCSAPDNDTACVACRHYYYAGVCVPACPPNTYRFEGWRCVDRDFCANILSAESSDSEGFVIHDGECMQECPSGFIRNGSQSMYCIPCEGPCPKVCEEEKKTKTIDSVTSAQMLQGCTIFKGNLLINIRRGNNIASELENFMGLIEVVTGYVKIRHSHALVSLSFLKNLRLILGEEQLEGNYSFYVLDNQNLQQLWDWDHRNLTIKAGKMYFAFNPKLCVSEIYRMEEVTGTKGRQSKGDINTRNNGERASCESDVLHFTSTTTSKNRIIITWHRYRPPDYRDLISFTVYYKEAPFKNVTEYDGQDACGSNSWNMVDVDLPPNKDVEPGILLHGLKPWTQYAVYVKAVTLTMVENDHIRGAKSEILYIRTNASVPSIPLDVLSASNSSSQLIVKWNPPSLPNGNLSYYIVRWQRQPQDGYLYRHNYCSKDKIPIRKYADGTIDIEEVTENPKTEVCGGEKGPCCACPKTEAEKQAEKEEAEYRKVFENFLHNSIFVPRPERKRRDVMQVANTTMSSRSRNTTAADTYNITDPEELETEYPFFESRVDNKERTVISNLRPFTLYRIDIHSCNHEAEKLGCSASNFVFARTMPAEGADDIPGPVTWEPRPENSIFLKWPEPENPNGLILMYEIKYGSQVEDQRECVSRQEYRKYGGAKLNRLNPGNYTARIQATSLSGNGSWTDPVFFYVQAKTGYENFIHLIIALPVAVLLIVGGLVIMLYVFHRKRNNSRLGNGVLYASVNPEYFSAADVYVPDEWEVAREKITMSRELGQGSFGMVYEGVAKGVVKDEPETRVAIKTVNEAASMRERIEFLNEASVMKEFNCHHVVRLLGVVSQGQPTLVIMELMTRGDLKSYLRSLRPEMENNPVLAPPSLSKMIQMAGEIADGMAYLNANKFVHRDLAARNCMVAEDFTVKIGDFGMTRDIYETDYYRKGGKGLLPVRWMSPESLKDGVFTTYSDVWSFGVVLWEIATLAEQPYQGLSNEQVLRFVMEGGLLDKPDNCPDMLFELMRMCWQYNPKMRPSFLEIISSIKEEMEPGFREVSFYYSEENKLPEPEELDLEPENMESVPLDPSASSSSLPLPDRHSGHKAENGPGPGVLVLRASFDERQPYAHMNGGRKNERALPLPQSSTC

Q: How did the “GI50 (µM), MTT assay, MCF-7 cells” value turn out when B1 was run?
A: 0.2 µM

Q: And the “TGI (µM), MTT assay, MCF-7 cells” value?
A: 1.5 µM

Q: What does the source list for B2?
A: GI50 (µM), MTT assay, MCF-7 cells: 1.2 µM; TGI (µM), MTT assay, MCF-7 cells: 2.7 µM

Q: With B3 as the binder, how does the “GI50 (µM), MTT assay, MCF-7 cells” value read?
A: 1.45 µM

Q: And the “TGI (µM), MTT assay, MCF-7 cells” value?
A: 4.1 µM

Q: Which results are given for B4?
A: GI50 (µM), MTT assay, MCF-7 cells: 1.8 µM; TGI (µM), MTT assay, MCF-7 cells: > 5 µM

Q: Which results are given for B5?
A: GI50 (µM), MTT assay, MCF-7 cells: 0.07 µM; TGI (µM), MTT assay, MCF-7 cells: 0.5 µM

Q: For B6, which “GI50 (µM), MTT assay, MCF-7 cells” value is on record?
A: 1.4 µM

Q: And the “TGI (µM), MTT assay, MCF-7 cells” value?
A: > 5 µM

Q: What does the source list for B7?
A: GI50 (µM), MTT assay, MCF-7 cells: 1.65 µM; TGI (µM), MTT assay, MCF-7 cells: > 5 µM

Q: What does the source list for B8?
A: GI50 (µM), MTT assay, MCF-7 cells: 0.08 µM; TGI (µM), MTT assay, MCF-7 cells: 0.5 µM

Q: For B9, which “GI50 (µM), MTT assay, MCF-7 cells” value is on record?
A: 2.5 µM

Q: And the “TGI (µM), MTT assay, MCF-7 cells” value?
A: > 5 µM

Q: Which results are given for B10?
A: GI50 (µM), MTT assay, MCF-7 cells: 0.1 µM; TGI (µM), MTT assay, MCF-7 cells: 1.1 µM

Q: B11 was tested. Which “GI50 (µM), MTT assay, MCF-7 cells” value did it give?
A: 0.1 µM

Q: And the “TGI (µM), MTT assay, MCF-7 cells” value?
A: 0.4 µM

Q: Which results are given for B12?
A: GI50 (µM), MTT assay, MCF-7 cells: 1.1 µM; TGI (µM), MTT assay, MCF-7 cells: 2.5 µM

Q: How did the “GI50 (µM), MTT assay, MCF-7 cells” value turn out when B13 was run?
A: 0.2 µM

Q: What about the “TGI (µM), MTT assay, MCF-7 cells” value of the same binder?
A: > 5 µM

Q: For B14, which “GI50 (µM), MTT assay, MCF-7 cells” value is on record?
A: 0.15 µM

Q: And the “TGI (µM), MTT assay, MCF-7 cells” value?
A: 2 µM

Q: Which “GI50 (µM), MTT assay, MCF-7 cells” value does the source give for B15 here?
A: 0.1 µM

Q: What about the “TGI (µM), MTT assay, MCF-7 cells” value of the same binder?
A: 1.5 µM

Q: With B16 as the binder, how does the “GI50 (µM), MTT assay, MCF-7 cells” value read?
A: 1.3 µM

Q: What about the “TGI (µM), MTT assay, MCF-7 cells” value of the same binder?
A: > 5 µM

Source: patent US20110195911A1, “SYNTHETIC ANALOGS OF THE JUXTAMEMBRANE DOMAIN OF IGF1R AND USES THEREOF” (THE UNITED STATES OF AMERICA,AS REPRESENTED BY THE …, priority 2008, published 2011)
